Like-named read-outs stand apart in the source and are kept apart here.
How the values were obtained:
Experiment in all cases: ITC
[1] = target: T1, HIV-1 nucleocapsid protein (NC) (HIV-1 NL4-3, UniProt P12493 378-432)
[2] = target: T1, HIV-1 nucleocapsid protein (NC); remark: listed apart in the source
[3] = target: T1, HIV-1 nucleocapsid protein (NC); remark: listed apart in the source
[4] = target: T1, HIV-1 nucleocapsid protein (NC); remark: listed apart in the source
[5] = target: T1, HIV-1 nucleocapsid protein (NC); remark: listed apart in the source
[6] = target: T1, HIV-1 nucleocapsid protein (NC); remark: listed apart in the source
[7] = target: T1, HIV-1 nucleocapsid protein (NC); remark: listed apart in the source
[8] = target: T1, HIV-1 nucleocapsid protein (NC); remark: listed apart in the source

Binder: UGUGCCCUUCU (ssRNA) [U5GGU (G112U)]
- Kd [1]: 81 ± 8 nM

Binder: UUUUCCCUUCU (ssRNA) [U5UUU (G106U;G108U;G112U)]
- binding result [2]: no binding

Binder: UGUUCCCUUCU (ssRNA) [U5GUU (G108U;G112U)]
- Kd [3]: 880 ± 91 nM

Binder: UUUGCCCUUCU (ssRNA) [U5UGU (G106U;G112U)]
- Kd [4]: 812 ± 91 nM

Binder: UGUUCCCGUCU (ssRNA) [U5GUG (G108U)]
- Kd [5]: 239 ± 20 nM

Binder: UUUGCCCGUCU (ssRNA) [U5UGG (G106U)]
- Kd [6]: 267 ± 20 nM

Binder: UUUUCCCGUCU (ssRNA) [U5UUG (G106U;G108U)]
- Kd [7]: 547 ± 55 nM

Binder: UGUGCCCGUCU (ssRNA) [U5 (U5GGG, native)]
- Kd [8]: 122 ± 10 nM

From article PMC2646082
